Test results as given in US20240026011A1 (published 2024).

How the values were obtained:
human CA9 on cells = human CA9 on cells (human, UniProt Q16790 38-459); assay: affinity; Pro51 format
cyno CA9 on cells = cyno CA9 on cells (cyno, UniProt A0A2K5VQG9 38-447); assay: affinity; Pro51 format
cyno HER2 on cells = cyno HER2 on cells (cynomolgus monkey, UniProt A0A2K5WUT7 1-1225); assay: kinetic affinity (kon/koff); Pro51 format
human HER2 on cells = human HER2 on cells (human, UniProt P04626 23-1255); assay: kinetic affinity (kon/koff); Pro51 format

Chain of cyno CA9 on cells (A0A2K5VQG9 entry or part of it): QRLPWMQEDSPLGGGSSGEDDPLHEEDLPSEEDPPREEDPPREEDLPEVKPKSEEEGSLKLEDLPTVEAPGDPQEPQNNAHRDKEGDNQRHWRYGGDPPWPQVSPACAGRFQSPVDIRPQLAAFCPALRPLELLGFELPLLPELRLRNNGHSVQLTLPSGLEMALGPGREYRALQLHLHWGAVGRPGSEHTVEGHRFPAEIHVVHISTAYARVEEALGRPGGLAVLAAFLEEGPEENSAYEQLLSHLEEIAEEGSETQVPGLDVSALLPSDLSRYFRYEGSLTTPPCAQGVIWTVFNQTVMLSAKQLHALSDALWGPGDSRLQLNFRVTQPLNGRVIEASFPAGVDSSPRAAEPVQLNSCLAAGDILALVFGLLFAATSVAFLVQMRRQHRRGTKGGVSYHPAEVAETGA

Binder | Kd (cyno HER2 on cells) | further results
h456 (Pro509) (antibody, V domains shown) VH: QVQLVESGGGLVQPGGSLRLSCAASGSALIINAMGWYRQAPGKQRELVATVTRSGRTNYADSVKGRFTISRDNSKNTLYLQMNSLRAEDTAVYYCNVALWIADGEYDYWGQGTLVTVSS | – | Kd (human CA9 on cells): 0.7 nM; Kd (cyno CA9 on cells): 1.1 nM
Pro1045 VIB1159 (bispecific antibody, V domains shown) VH: QVQLQESGGGLVQAGGSLRLSCATSGRTFSSLAMGWFRQAPGKERELVAGISWSGSTTYYADSVKGRFAISRDNAKNTVYLQMNSLKPEDTAVYYCAARTSSIATIGREYDYWGQGTQVTVSS | 17 nM | –
h1159 (Pro1062) (antibody, V domains shown) VH: QVQLLESGGGLVQPGGSLRLSCATSGRTFSSLAMGWFRQAPGKERELVAGISWSGSTTYYADSVKGRFAISRDNSKNTLYLQMNSLRAEDTAVYYCAARTSSIATIGREYDYWGQGTLVTVSS | 37 nM | –
1121 (Pro1042) (protein) QVQLQESGGGLVQAGGSLRLSCAASGFIFSDYAMTWVRQAPGKGLEWVSSINWSGTHTNYADSVKGRFTISRDNAKKTLYLQMNSLKSEDTAVYYCARGWMVVPDSTRGQGTQVTVSS | 4.6 nM | –
1160 (Pro1046) (antibody, V domains shown) VH: QVQLQESGGGLVQAGGSLRLSCAASGRTFSNERLGWFRQAPGKERELVAAIRWSGVIIGYADSVRGRFTISRDNAKSTVYLQMNSLRPEDTAVYFCAADRGVYGTWDYWGQGTQVTVSS | 10.8 nM | –
humanized aHER2 sdAb h1162 (VHH) VHH: QVQLLESGGGLVQPGGSLRLSCAASGRPFSGNAMGWFRQAPGKEREFVAAISWSGDSTYYADSVKGRFTISRDNSKNTLYLQMNSLRAEDTAVYYCAATRSFYSRTYYTRPSDYNYWGPGTLVTVSS | 21.8 nM | –
Pro1047 VIB1162 (bispecific antibody, V domains shown) VH: QVQLQESGGGLVQAGGSLRLSCAASGRPFSGNAMGWFRQAPGKEREFVAAISWSGDSTYYADSVKGRFTISRDNDENTAYLQMNSLKPEDTAVYYCAATRSFYSRTYYTRPSDYNYWGPGTQVTVSS | 21.2 nM | –
h445 (Pro512) (antibody, V domains shown) VH: QVQLVESGGGLVKPGGSLRLSCAASGITFNLHAMRWYRRAPGKQRELVAYISARDWTNYADSVKGRFTISRDNAKNSLYLQMNSLRAEDTAVYYCNTDLVGEDYWGRGTLVTVSS | – | Kd (human CA9 on cells): 3.1 nM; Kd (cyno CA9 on cells): 4.9 nM
Pro1043 VIB1139 (bispecific antibody, V domains shown) VH: QVQLQESGGGLVQPGGSLRLSCAASGFTFDDYAMSWIRQAPGKEMEWVSGINWSGTHTRYADSVKGRFTISRDNAKNTLDLQMNSLISEDTAVYYCARGFAADSRSTRGQGTQVTVSS | 6.7 nM | –
h1139 (Pro1060) (protein) QVQLVESGGGVVRPGGSLRLSCAASGFTFDDYAMSWIRQAPGKEMEWVSGINWSGTHTRYADSVKGRFTISRDNAKNSLYLQMNSLRAEDTALYYCARGFAADSRSTRGQGTLVTVSS | 7.4 nM | –
Pro1044 VIB1156 (bispecific antibody, V domains shown) VH: QVQLQESGGGLVQAGGSLKVSCAASRNIGSNYAVGWFRQAPGKEREPVAALRWTGSIIGYDDSLRGRFTISKDDAKNTVYLQMNSLKPEDTGVYYCAARILDRSSYDYWGQGTQVTVSS | 9 nM | –
h476 (Pro510) (antibody, V domains shown) VH: QVQLVESGGGLVQPGGSLRLSCAASGNIFIINVMGWYRQAPGKQRELVATITNGGRTHYADSVKGRFTISRDNSKNTLYLQMNSLRAEDTAVYYCNANHIELGDYWGQGTLVTVSS | – | Kd (human CA9 on cells): 1.6 nM; Kd (cyno CA9 on cells): 1.2 nM
1058 (Pro1037) (protein) QVQLQESGGGLVQPGGSLRLTCAASGRAISSYAISWFRQAPGEEREFVAAINWSGTHTNYADSVKGRFTISRDNVKNTVYLQMNSLKPEDTATYFCSRGWSVFDPDYRGQGTQVTVSS | 9.7 nM | Kd (human HER2 on cells): 8.6 nM
Pro1038 VIB1059 (bispecific antibody, V domains shown) VH: QVQLQESGGGLVQPGGSLRLTCAASGRAISSYAISWFRQAPGEEREFVAAINWSGTHTDYADSVKGRFTISRDNAKNTVYLQMNSLKPEDTAVYFCSRGWSVFDPDYRGQGTQVTVSS | 85 nM | –
Pro1036 VIB1055 (bispecific antibody, V domains shown) VH: QVQLQESGGGLVQPGGSLRLTCEVSGRAISSYAISWFRQAPGEEREFVAAINWSGTHTNYADSVKGRFTISRDNVKNTVYLQMNSLKPEDTATYFCSRGWSVFDPDYRGQGTQVTVSS | 69.9 nM | –
1091 (Pro1039) (protein) QVQLQESGGGLVQPGGSLRLSCAASGFTFDDYAMSWVRQAPGKGLEWVSSINWSGTHTDYADSVKGRFTISRDNAKNTLYLQMNSLKSEDSAVYYCVKGWRLTGGYYDSVQGQGTQVTVSS | 8.5 nM | –
1097 (Pro1041) (protein) QVQLQESGGGLVQPGGSLRLSCAASGFIFDDYAMTWVRQAPGKGLEWVSSINWSGTHTDYADSVKGRFTISRDNAKNTLYLQMNSLKSEDSAVYYCVKGWRHTDNYYAGVQGQGTQVTVSS | 4.3 nM | –
1092 (Pro1040) (protein) QVQLQESGGGLVQAGASLRLSCAASGFTFDDYALSWVRQAPGKGLEWVSSINWSGTHTDYADSVKGRFTISRDNAKNTLYLQMNSLKSEDSAVYYCVKGWRLTGGYYDSVQGQGTQVTVSS | 4.5 nM | –
